Results taken from publication PMC11711613.
Several values for one entry are separate records, joined by “and”; a condition that tells them apart may be missing. Equal values may be shown once.

Key:
[1] = biological target: RctB domain IV (RctB^IV, amino acids 532 to 658) (Vibrio cholerae N16961); experiment: SEC; analytical SEC, Superdex 200 10/300, 50 mM Hepes, 200 mM NaCl, 2 mM MgCl2, 1 mM TCEP, calibrated with gel filtration standards
[2] = biological target: RctB, full length (Vibrio cholerae N16961); experiment: cryo-EM 2D class averages; RctB at 0.25 mg/ml in 50 mM Hepes, 200 mM NaCl, 2 mM MgCl2, 1 mM TCEP; reference-free 2D classification
[3] = biological target: RctB, full length (Vibrio cholerae N16961); experiment: SEC; analytical SEC, Superdex 200 10/300, 50 mM Hepes, 200 mM NaCl, 2 mM MgCl2, 1 mM TCEP, calibrated with gel filtration standards

Substance	stoichiometry N [1]	stoichiometry N [2]	stoichiometry N [3]
RctB domain IV (RctB^IV, amino acids 532 to 658) (domain or fragment)	2		
RctB, full length (natural protein)		2 and 4	2 and 4
